For assay [1], the target named is T1, Class II MHC (mouse, on splenocytes and lymphoid organs) (mouse, UniProt P14434 24-256; P14483 28-265).
T1 construct: whole, on cells; also called Class II MHC products; Class II MHC molecules
T1 sequence (MHC II alpha, looked up): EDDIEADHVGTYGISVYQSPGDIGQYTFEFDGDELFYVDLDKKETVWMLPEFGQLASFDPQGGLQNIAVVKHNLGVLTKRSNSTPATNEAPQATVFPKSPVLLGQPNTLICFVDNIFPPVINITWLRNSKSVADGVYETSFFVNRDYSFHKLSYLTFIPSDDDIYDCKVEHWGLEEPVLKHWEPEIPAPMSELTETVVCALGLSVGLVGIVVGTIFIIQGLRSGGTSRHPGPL
T1 sequence (MHC II beta, looked up): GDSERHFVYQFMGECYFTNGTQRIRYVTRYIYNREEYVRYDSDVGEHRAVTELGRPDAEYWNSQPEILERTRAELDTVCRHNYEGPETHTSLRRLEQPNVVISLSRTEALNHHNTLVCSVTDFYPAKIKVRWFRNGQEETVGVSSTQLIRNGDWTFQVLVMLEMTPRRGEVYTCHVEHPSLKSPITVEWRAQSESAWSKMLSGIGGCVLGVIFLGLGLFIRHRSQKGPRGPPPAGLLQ
The experiment in a line: FACS, splenocytes stained in vitro with different concentrations of Alexa647-labeled DC8 monomer or dimer; reference DC8 monomer. Here is the method: (§1) FIGS. 3A-3D (FIGS. 3A-3B) show dimers that are able to stain their targets with increased efficiency compared to their corresponding monomers; for FIG. 3A: cells were stained in vitro with the indicated concentrations of Alexa647-labeled VHH monomers or dimers; for FIG. 3B: equal amount of DC8 monomer and DC8-dimer is injected IV. 2 h p.i., the mice are euthanized and spleens are excised for two-photon imaging. (FIG. 3C) Equal amount of DC8 with or without PEG, both equipped with Texas Red is injected IV. 3 h p.i., the mice are euthanized and spleens are excised for two-photon imaging. (FIG. 3D) Equal amount of DC8 with or without PEG (0.4 nmols), all equipped with Alexa647 is injected IV. 3 h p.i., the mice are euthanized and spleen is excised. Cells were harvested and analyzed with FACS.
(§2) Four sortase substrates were designed and synthesized for production of dimers or PEGylated VHHs (FIG. 1). The substrates either contain two bioorthogonal handles or a handle and a fluorophore. The Alexa647-labeled substrate was designed such that the reaction products could be used in FACS experiments to estimate relative in vitro binding affinities. […] For DC8 (anti Class II), splenocytes were stained with different concentrations of monomers and dimers and analyzed by FACS. […] The in vivo binding characteristics of the VHH dimers versus monomers were evaluated. […]

Assay [2] has as its target T1, Class II MHC (mouse, on splenocytes and …). The experiment in a line: FACS of spleen cells harvested 3 h after i.v. injection of Alexa647-labeled VHH into B6 mice; reference non-PEGylated DC8. The text has this: Specificity was established by blocking the targets of these VHHs by introduction of unlabeled VHHs as competitors prior to imaging. […] To further confirm the specificity of the dimers in the absence of competing VHHs, MHC II^{-/-} and CD11b^{-/-} mice were imaged. No PET signals were detected in lymphoid organs, further confirming the specificity of both dimers (FIGS. 4E-4G). […] These experiments helped set the stage to explore ability of VHH dimers to image tumors. Two types of tumors were imaged with the developed bivalent VHHs by engraftment of mice with the B16 melanoma or the pancreatic tumor cell line panc02. Both the dimers readily detected the lymphoid organs as well as the B16 melanoma tumor or the panc02 graft. Upon excision, the panc-tumors were no more than ˜1-2 mm in diameter, showing the method to be sensitive. Postmortem biodistribution analysis correlated well with the FACS and two-photon results as well (FIGS. 5A-5B). It was examined whether circulatory half-life could be manipulated to further improve the signal to noise ratio. PEGylation of VHHs results in increased circulatory half-life, where the increase correlates with the size of the attached PEG group^{[15]}. VHHs sortagged with substrate 2 or 3 were reacted with DBCO-functionalized PEG (5 kDa, 10 kDa or 20 kDa) to yield the final PEGylated VHHs (FIGS. 2E-2F). B6 mice received 5 μg of PEGylated VHH and were euthanized 3 h later, followed by dissection of lymph nodes and spleen for FACS and two-photon microscopy.

For assay [3], the target named is T2, CD11b (mouse, on the CD11b+ mutuDC dendritic cell line and on myeloid cells in vivo) (mouse, UniProt P05555 17-1153).
T2 construct: whole, on cells; On cells CD11b is paired with CD18
T2 sequence (P05555 17-1153): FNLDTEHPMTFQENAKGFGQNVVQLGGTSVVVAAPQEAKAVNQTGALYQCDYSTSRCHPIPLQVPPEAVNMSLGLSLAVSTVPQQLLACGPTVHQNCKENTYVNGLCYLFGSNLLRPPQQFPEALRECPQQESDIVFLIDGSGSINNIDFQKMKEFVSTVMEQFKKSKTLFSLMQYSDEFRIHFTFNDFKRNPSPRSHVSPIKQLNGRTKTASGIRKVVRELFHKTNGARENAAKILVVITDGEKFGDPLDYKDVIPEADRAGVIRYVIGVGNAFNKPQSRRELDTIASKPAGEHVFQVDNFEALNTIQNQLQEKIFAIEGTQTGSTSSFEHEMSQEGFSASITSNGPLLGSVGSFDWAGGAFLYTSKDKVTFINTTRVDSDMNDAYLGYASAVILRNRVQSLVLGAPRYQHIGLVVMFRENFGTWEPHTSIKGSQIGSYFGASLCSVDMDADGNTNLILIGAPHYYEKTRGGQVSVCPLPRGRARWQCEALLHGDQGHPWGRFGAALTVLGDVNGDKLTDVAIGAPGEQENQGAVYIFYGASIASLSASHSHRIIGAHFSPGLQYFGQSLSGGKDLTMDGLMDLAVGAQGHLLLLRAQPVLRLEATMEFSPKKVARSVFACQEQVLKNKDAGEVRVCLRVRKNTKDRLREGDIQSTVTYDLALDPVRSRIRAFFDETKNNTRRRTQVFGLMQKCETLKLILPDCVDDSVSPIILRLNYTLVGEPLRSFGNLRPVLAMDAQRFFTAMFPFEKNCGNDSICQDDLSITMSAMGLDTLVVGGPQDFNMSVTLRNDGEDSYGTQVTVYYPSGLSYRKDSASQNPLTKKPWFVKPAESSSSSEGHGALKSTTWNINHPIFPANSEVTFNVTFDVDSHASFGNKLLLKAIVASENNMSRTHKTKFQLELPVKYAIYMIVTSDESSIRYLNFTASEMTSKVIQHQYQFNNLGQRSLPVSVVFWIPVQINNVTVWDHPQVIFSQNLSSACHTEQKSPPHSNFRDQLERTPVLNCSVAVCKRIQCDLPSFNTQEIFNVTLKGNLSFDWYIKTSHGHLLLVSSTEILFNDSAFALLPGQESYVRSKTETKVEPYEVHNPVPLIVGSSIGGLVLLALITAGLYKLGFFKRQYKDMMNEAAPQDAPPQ
Kind of assay: FACS, CD11b+ mutuDC dendritic cell line stained in vitro with Alexa647-labeled DC13 monomer or dimer; reference DC13 monomer. As to the method:
as §1, §2
Background: A flow cytometer gives signals particle by particle.

B1: DC8 dimer (bivalent anti Class II MHC VHH, two DC8 joined via their C-termini by sortase and DBCO-azide click chemistry) (VHH)
VHH 1: QVQLQESGGGLVQPGGSLRLSCTASGFTFSTYYMSWVRKAPGKGPEWVSVMNSSGGDTRYADFVKGRFTISRDNAKNTLYLQMNSLKPEDTALYYCAQGRSDIYPTFTRGQGTQVTVSS
VHH 2: QVQLQESGGGLVQPGGSLRLSCTASGFTFSTYYMSWVRKAPGKGPEWVSVMNSSGGDTRYADFVKGRFTISRDNAKNTLYLQMNSLKPEDTALYYCAQGRSDIYPTFTRGQGTQVTVSS
modifications: C-terminal (Gly)3 continues as -PEG12-Cys(Alexa647, Texas Red or TCO/18F-tetrazine)-PEG5-Lys(azide); the azide is clicked to the DBCO of the other chain; C-terminal Cys carries maleimide-DBCO, clicked to the azide of the other chain
notes: Label differs by assay (Alexa647, Texas Red, 18F); also called 18F-DC8 dimer; anti Class II MHC dimer
Regarding B1, the “fold better binding than the corresponding monomer” value in assay [1] is approximately 3.3 fold.

B2: DC8-alexa647-PEG-10 kDa (site-specifically PEGylated DC8) (VHH)
VHH: QVQLQESGGGLVQPGGSLRLSCTASGFTFSTYYMSWVRKAPGKGPEWVSVMNSSGGDTRYADFVKGRFTISRDNAKNTLYLQMNSLKPEDTALYYCAQGRSDIYPTFTRGQGTQVTVSS
modifications: C-terminal (Gly)3 continues as -PEG12-Cys(Alexa647, Texas Red or TCO/18F-tetrazine)-PEG5-Lys(azide); the azide is clicked to DBCO-PEG 10 kDa
notes: Alexa647 form used for FACS, 18F form for PET and biodistribution; also called 10 kDa PEG-conjugated DC8; PEGylated DC8-Alexa647
On to B2, for which the “percent increase in staining versus non-PEGylated DC8” value in assay [2] is approximately 100%.

B3: DC8-Alexa647-PEG-20 kDa (site-specifically PEGylated DC8) (VHH)
VHH: QVQLQESGGGLVQPGGSLRLSCTASGFTFSTYYMSWVRKAPGKGPEWVSVMNSSGGDTRYADFVKGRFTISRDNAKNTLYLQMNSLKPEDTALYYCAQGRSDIYPTFTRGQGTQVTVSS
modifications: C-terminal (Gly)3 continues as -PEG12-Cys(Alexa647, Texas Red or TCO/18F-tetrazine)-PEG5-Lys(azide); the azide is clicked to DBCO-PEG 20 kDa
notes: Alexa647 form used for FACS, 18F form for PET and biodistribution; also called 20 kDa PEG-conjugated DC8; PEGylated DC8-Alexa647
Turning to B3, the “percent increase in staining versus non-PEGylated DC8” value in assay [2] was approximately 220%.

B4: DC8-alexa647-PEG-5 kDa (site-specifically PEGylated DC8) (VHH)
VHH: QVQLQESGGGLVQPGGSLRLSCTASGFTFSTYYMSWVRKAPGKGPEWVSVMNSSGGDTRYADFVKGRFTISRDNAKNTLYLQMNSLKPEDTALYYCAQGRSDIYPTFTRGQGTQVTVSS
modifications: C-terminal (Gly)3 continues as -PEG12-Cys(Alexa647, Texas Red or TCO/18F-tetrazine)-PEG5-Lys(azide); the azide is clicked to DBCO-PEG 5 kDa
notes: Alexa647 form used for FACS, 18F form for PET and biodistribution; also called 5 kDa PEG-conjugated DC8; PEGylated DC8-Alexa647
Consider B4, for which the “percent increase in staining versus non-PEGylated DC8” value in assay [2] was approximately 30%.

B5: DC13 dimer (bivalent anti CD11b VHH, two DC13 joined via their C-termini by sortase and DBCO-azide click chemistry) (VHH)
VHH 1: QVQLQESGGGLVQTGGSLRLSCAASGVDFNWYSMGWFRQAPGKEREYVASIDQGGELDYAISVKGRFTISRDNAKNMVYLQMNSLKPEDTAVYYCAADFSGRGASNPDKYKYWGQGTQVTVSS
VHH 2: QVQLQESGGGLVQTGGSLRLSCAASGVDFNWYSMGWFRQAPGKEREYVASIDQGGELDYAISVKGRFTISRDNAKNMVYLQMNSLKPEDTAVYYCAADFSGRGASNPDKYKYWGQGTQVTVSS
modifications: C-terminal (Gly)3 continues as -PEG12-Cys(Alexa647, Texas Red or TCO/18F-tetrazine)-PEG5-Lys(azide); the azide is clicked to the DBCO of the other chain; C-terminal Cys carries maleimide-DBCO, clicked to the azide of the other chain
notes: Label differs by assay (Alexa647, 18F); also called DC13-dimer-Alexa647; 18F-DC13 dimer
Regarding B5, the “fold better binding than the corresponding monomer” value in assay [3] is approximately 2.3 fold.

These data come from patent publication US20240325575A1 (WHITEHEAD INSTITUTE FOR BIOMEDICAL RESEARCH, published 2024).
